The data set concerns the target T1, MarA (Escherichia coli, UniProt P0ACH5 1-127).
T1 sequence: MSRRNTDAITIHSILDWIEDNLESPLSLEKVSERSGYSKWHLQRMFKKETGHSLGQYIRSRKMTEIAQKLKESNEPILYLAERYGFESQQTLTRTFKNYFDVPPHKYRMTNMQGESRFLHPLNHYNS
The data set is described as follows: EMSA; MarA 0.4, 1.2, 2.0 uM; EMSA: 20 mM Tris pH 7, 10 mM MgCl2, 100 mM EDTA (so in the source), 120 mM KCl; 5% polyacrylamide gel; temperature not stated. The note with it: protein: recombinant; tags: N-terminal His6 tag (pET28a) removed by thrombin; label: 5'-32P; 5' overhang 4 nt at both ends (EcoRI, HindIII). (In EMSA bound probe runs differently from free probe, usually more slowly.)

B1: ycgZ.1m (dsDNA)
DNA 1: AATTCATATGCATTACGTCTAATTCGAAAAAATTAATTTATCATTCTGTACACATATTTCGTACAAGTTTGCTATTGTTACTTCACTTAACATTGATTAACATTTTTAACAGAGGCGTAGCATGA
DNA 2: AGCTTCATGCTACGCCTCTGTTAAAAATGTTAATCAATGTTAAGTGAAGTAACAATAGCAAACTTGTACGAAATATGTGTACAGAATGATAAATTAATTTTTTCGAATTAGACGTAATGCATATG
For B1, the binding result is “no binding”.

(Values after article PMC6900184, “The Escherichia coli MarA protein regulates the ycgZ‐ymgABC operon to inhibit biofilm formation”.)
